We go through 1 substance from PMC2966024.

This experiment has as its target PspB-T25 fusion (Y. enterocolitica PspB with Cya-T25 fused to its C-terminus) (Y. enterocolitica). Put plainly: two-hybrid.

As for “PspA-T18 fusion (Y. enterocolitica PspA with Cya-T18 fused to its C-terminus) (from UniProt Q9F4H4 1-221) (natural protein)”, the beta-galactosidase activity was 1470 Miller units.
